Measurements as given in paper PMC4509860.

biological target: FITC-labeled HcaA leader peptide (Bacillus sp. Al Hakam); test: fluorescence polarisation

Row | Substance | Kd [nM]
1 | HcaF E76A (natural protein) | 250
2 | HcaF D38A (natural protein) | 77
3 | HcaF N72A (natural protein) | 79
4 | HcaF I80A (natural protein) | 500
5 | HcaF R73A (natural protein) | > 10000
6 | HcaF E79A (natural protein) | 75

biological target: FITC-labeled CurA leader (Corynebacterium urealyticum DSM 7109); test: fluorescence polarisation

Row | Substance | Kd [µM]
7 | CurC R68A (natural protein) | 79
8 | CurC Q21A (natural protein) | 8
9 | CurC Y31A (natural protein) | > 150
10 | CurC E36A (natural protein) | 3.1
11 | CurC D18A (natural protein) | 3.3
12 | CurC I75A (natural protein) | 66
13 | CurC E25A (natural protein) | 4.3

biological target: FITC-labeled BalhA1 leader peptide (Bacillus sp. Al Hakam); test: fluorescence polarisation

Row | Substance | Kd [µM]
14 | BalhC D32A (natural protein) | 21
15 | BalhC wild-type (natural protein) | 10
16 | BalhC E66A (natural protein) | 60
17 | BalhC D23A (natural protein) | 50
18 | BalhC K20A (natural protein) | 52
19 | BalhC H38A (natural protein) | 21

biological target: FITC-labeled StmA leader peptide (Streptomonospora alba); test: fluorescence polarisation

Row | Kd [nM] | Substance
20 | 410 | StmE N22A (natural protein)
21 | 2600 | StmE D69A (natural protein)
22 | 28 | StmE Y28A (natural protein)
23 | 75 | StmE Q76A (natural protein)
24 | 38 | StmE D68A (natural protein)
25 | 160 | StmE V12A (natural protein)
26 | 35 | StmE D75A (natural protein)
27 | 35 | StmE wild-type (natural protein)
